Reference: patent publication US20230035659A1, “Compositions and Methods for TTR Gene Editing and Treating ATTR Amyloidosis Comprising a Corticosteroid or Use Thereof” (Intellia Therapeutics, Inc., priority 2019, published 2023)
Strand notation (5' to 3'): a small letter for the sugar, then the base; units joined by * are phosphorothioate-linked, units joined directly phosphodiester-linked; [ ] holds rarer units or linkages, { } end groups; capitals alone tell only the bases. m = 2'-O-methyl; r = 2'-OH (RNA)

What was measured:
TTR [1] = test: TTR editing dose response (EC50, maximum editing) in primary human hepatocytes treated with LNP formulated U-depleted Spy Cas9 mRNA and sgRNAs; assay type: cell-based
Description: (§1) Primary liver hepatocytes. Primary human liver hepatocytes (PHH) and primary cynomolgus liver hepatocytes (PCH) (Gibco) were cultured per the manufacturer's protocol (Invitrogen, protocol 11.28.2012). In brief, the cells were thawed and resuspended in hepatocyte thawing medium with supplements (Gibco, Cat. CM7000) followed by centrifugation at 100 g for 10 minutes for human and 80 g for 4 minutes for cyno. The supernatant was discarded and the pelleted cells resuspended in hepatocyte plating medium plus supplement pack (Invitrogen, Cat. A1217601 and CM3000). Cells were counted and plated on Bio-coat collagen I coated 96-well plates (ThermoFisher, Cat. 877272) at a density of 33,000 cells/well for human or 60,000 cells/well for cyno (or 65,000 cells/well when assaying effects on TTR protein, described further below). Plated cells were allowed to settle and adhere for 6 or 24 hours in a tissue culture incubator at 37° C. and 5% CO2 atmosphere. After incubation cells were checked for monolayer formation and media was replaced with hepatocyte culture medium with serum-free supplement pack (Invitrogen, Cat. A1217601 and CM4000).
(§2) For LNPs prepared using the cross-flow technique, the LNPs were formed by impinging jet mixing of the lipid in ethanol with two volumes of RNA solutions and one volume of water. The lipid in ethanol is mixed through a mixing cross with the two volumes of RNA solution. A fourth stream of water is mixed with the outlet stream of the cross through an inline tee. (See WO2016010840 FIG. 2.) The LNPs were held for 1 hour at room temperature, and further diluted with water (approximately 1:1 v/v). Diluted LNPs were concentrated using tangential flow filtration on a flat sheet cartridge (Sartorius, 100 kD MWCO) and then buffer exchanged by diafiltration into 50 mM Tris, 45 mM NaCl, 5% (w/v) sucrose, pH 7.5 (TSS). Alternatively, the final buffer exchange into TSS was completed with PD-10 desalting columns (GE). If required, formulations were concentrated by centrifugation with Amicon 100 kDa centrifugal filters (Millipore). The resulting mixture was then filtered using a 0.2 μm sterile filter. The final LNP was stored at 4° C. or −80° C. until further use.
(§3) Additional PCR was performed per the manufacturer's protocols (Illumina) to add chemistry for sequencing. The amplicons were sequenced on an Illumina MiSeq instrument. The reads were aligned to a reference genome (e.g., the human reference genome (hg38), the cynomologus reference genome (mf5), the rat reference genome (rn6), or the mouse reference genome (mm10)) after eliminating those having low quality scores. The resulting files containing the reads were mapped to the reference genome (BAM files), where reads that overlapped the target region of interest were selected and the number of wild type reads versus the number of reads which contain an insertion, substitution, or deletion was calculated.
(§4) The editing percentage (e.g., the “editing efficiency” or “percent editing” or “indel frequency”) is defined as the total number of sequence reads with insertions/deletions (“indels”) or substitutions over the total number of sequence reads, including wild type.
(§5) Lipid nanoparticle formulations of modified sgRNAs targeting human TTR and the cyno matched sgRNA sequences were tested on primary human hepatocytes and primary cyno hepatocytes in a dose response curve. Primary human and cyno hepatocytes were plated as described in Example 1. Both cell lines were incubated at 37° C., 5% CO2 for 24 hours prior to treatment with LNPs. The LNPs used in the experiments detailed in Tables 20-22 were prepared using the cross-flow procedure described above but purified using PD-10 columns (GE Healthcare Life Sciences) and concentrated using Amicon centrifugal filter units (Millipore Sigma), each containing the specified sgRNA and Cas9 mRNA (SEQ ID NO:1). […] LNPs were incubated in hepatocyte maintenance media containing 6% cyno serum at 37° C., 5% CO2 for 5 minutes. […]

TTR [2] = test: TTR editing dose response (EC50, maximum editing) in primary cyno hepatocytes treated with LNP formulated U-depleted Spy Cas9 mRNA and sgRNAs; assay type: cell-based, cynomolgus monkey
Description: as §1, §2, §3, §4, §5

TTR [3] = test: TTR editing in primary cyno hepatocytes treated with LNP formulated Spy Cas9 mRNA (SEQ ID NO: 2) and sgRNAs, 12.5 ng mRNA; assay type: cell-based, cynomolgus monkey; settings: LNP formulated Spy Cas9 mRNA (SEQ ID NO: 2) and cyno matched sgRNA, lysed 72 hours post treatment
Description: as §1
In general, the lipid nanoparticle components were dissolved in 100% ethanol with the lipid component of various molar ratios. The RNA cargos were dissolved in 25 mM citrate, 100 mM NaCl, pH 5.0, resulting in a concentration of RNA cargo of approximately 0.45 mg/mL. The LNPs were formulated with a lipid amine to RNA phosphate (N:P) molar ratio of about 4.5 or about 6, with the ratio of mRNA to gRNA at 1:1 by weight.
The LNPs were formed by microfluidic mixing of the lipid and RNA solutions using a Precision Nanosystems NanoAssemblr™ Benchtop Instrument, according to the manufacturer's protocol. A 2:1 ratio of aqueous to organic solvent was maintained during mixing using differential flow rates. […]
as §3, with “The amplicons were sequenced on an Illumina MiSeq instrument.” left out
The editing percentage (e.g., the “editing efficiency” or “percent editing” or “indel frequency”) is defined as the total number of sequence reads with insertions/deletions (“indels”) or substitutions over the total number of sequence reads, including wild type. […]

[4] = system: potential off-target genomic sites; test: Off-target analysis by oligo insertion based assay in primary human hepatocytes (sgRNAs); assay type: cell-based; settings: 100 ng Cas9 mRNA, 25 nM sgRNA, 12.5 nM donor oligo, 48 h
Description: Off-target analysis of sgRNAs targeting TTR was performed in primary human hepatocytes (PHH) as described in Example 5, with the following modifications. PHH were plated at a density of 33,000 cells per well on collagen-coated 96-well plates as described in Example 1. Twenty-four hours post plating, cells were washed with media and transfected using Lipofectamine RNAiMAX (ThermoFisher, Cat. 13778150) as described in Example 1. Cells were transfected with a lipoplex containing 100 ng Cas9 mRNA, immediately followed by the addition of another lipoplex containing 25 nM of the sgRNA and 12.5 nM of the donor oligo (0.3 μL/well). Cells were lysed 48 hours post-transfection and gDNA was extracted and analyzed as further described in Example 5. The data is graphically represented in FIG. 20.
Fewer sites were detected in PHH for every guide tested as compared to the HekCas9 cell line, with no unique sites detected in PHH alone.

TTR mRNA = TTR mRNA knockdown (quantitative PCR) in primary human hepatocytes treated with LNPs; assay type: cell-based; settings: PHH; LNP dose 300 ng mRNA cargo; gRNA:mRNA 1:2; 96 h; biological triplicates; vs untreated control
Description: In one experiment, PHH were cultured and treated with LNPs comprising Cas9 mRNA (SEQ ID NO:1) and a gRNA of interest (See FIG. 29, Table 36), as described in Example 4. The LNPs were prepared using the cross-flow procedure described above and purified and concentrated using PD-10 columns and Amicon centrifugal filter units, respectively. The LNPs were formulated with an N:P ratio of 6.0 and contained Lipid A, Cholesterol, DSPC, and PEG2k-DMG in a 50:38:9:2 molar ratio, respectively. The LNPs comprised a gRNA:mRNA ratio of 1:2, and the cells were treated at a dose of 300 ng (with respect to the amount of mRNA cargo delivered).
(§6) Ninety-six (96) hours following LNP treatment (with biological triplicates for each condition), mRNA was purified from PHH cells using the Dynabeads mRNA DIRECT Kit (ThermoFisher Scientific) according to the manufacturer's protocol. Reverse Transcription (RT) was performed with Maxima reverse transcriptase (ThermoFisher Scientific) and a poly-dT primer. The resulting cDNA was purified with Ampure XP Beads (Agencourt). For Quantitative PCR, 2% of the purified cDNA was amplified with Taqman Fast Advanced Mastermix and 3 Taqman probe sets, TTR (Assay ID: Hs00174914_m1), GAPDH (Assay ID: Hs02786624_g1), and PPIB (Assay ID: Hs00168719_m1). The assays were run on the QuantStudio 7 Flex Real Time PCR System according to the manufacturer's instructions (Life Technologies). Relative expression of TTR mRNA was calculated by normalizing to the endogenous controls (GAPDH and PPIB) individually, and then averaged.
The groups in FIG. 29 and Table 36 are identified by the gRNA ID used in each LNP preparation.
In a separate experiment, TTR mRNA knockdown was evaluated following treatment with LNPs comprising G000480, G000486, and G000502. The LNPs were formulated and PHH were cultured and treated with the LNPs, each as described in the experiment above in this Example with the exception that the cells were treated at a dose of 100 ng (with respect to the amount of mRNA cargo delivered).
as §6, with “(single treatment” for “(with biological triplicates”, “the High Capacity cDNA Reverse Transcription Kit” for “Maxima reverse transcriptase”, “according to the manufacturer's instructions.” for “and a poly-dT primer. The resulting cDNA was purified with Ampure XP Beads (Agencourt).”, “the” for “the purified”
The groups in FIG. 30 and Table 37 are identified by the gRNA ID used in each LNP preparation.

[5] = LNP with U-depleted Spy Cas9 mRNA and cyno specific sgRNA, 8 point 3-fold dose response starting at 300 ng mRNA, 72 hours
[6] = LNP formulated U-depleted Spy Cas9 mRNA and cyno specific sgRNAs
[7] = LNP formulated U-depleted Spy Cas9 mRNA and human specific sgRNAs

B1: G000505: TTR Cyno specific sgRNA modified sequence, SEQ ID NO: 117; guide sequence of CR005365 (nucleic acid)
guide: mC*mA*mU*rUrGrArCrArGrCrArGrGrArCrUrGrCrCrUrGrUrUrUrUrArGrAmGmCmUmAmGmAmAmAmUmAmGmCrArArGrUrUrArArArArUrArArGrGrCrUrArGrUrCrCrGrUrUrArUrCrAmAmCmUmUmGmAmAmAmAmAmGmUmGmGmCmAmCmCmGmAmGmUmCmGmGmUmGmCmU*mU*mU*mU
**Q.** How did the “Max Editing” value (TTR [1]; [5]) turn out when B1 was run?
**A.** 13.48%

**Q.** What about the “Max Editing” value (TTR [2]; [6]) of the same molecule?
**A.** 99.97%

**Q.** What about the “Max Editing” value (TTR [2]; [7]) of the same molecule?
**A.** 13.48%

B2: G000510: TTR Cyno specific sgRNA modified sequence, SEQ ID NO: 122; guide sequence of CR005370 (nucleic acid)
guide: mA*mC*mU*rUrGrUrCrUrUrCrUrCrUrArUrArCrCrCrArGrUrUrUrUrArGrAmGmCmUmAmGmAmAmAmUmAmGmCrArArGrUrUrArArArArUrArArGrGrCrUrArGrUrCrCrGrUrUrArUrCrAmAmCmUmUmGmAmAmAmAmAmGmUmGmGmCmAmCmCmGmAmGmUmCmGmGmUmGmCmU*mU*mU*mU
**Q.** With B2 as the molecule, how does the “12.5 ng mRNA, 3.9 nM sgRNA, Avg % Edit” value (TTR [3]) read?
**A.** 61.87%

B3: G000571: TTR sgRNA modified sequence, Human, SEQ ID NO: 112; guide sequence of CR005301 (nucleic acid)
guide: mG*mU*mC*rArCrArGrArArArCrArCrUrCrArCrCrGrUrGrUrUrUrUrArGrAmGmCmUmAmGmAmAmAmUmAmGmCrArArGrUrUrArArArArUrArArGrGrCrUrArGrUrCrCrGrUrUrArUrCrAmAmCmUmUmGmAmAmAmAmAmGmUmGmGmCmAmCmCmGmAmGmUmCmGmGmUmGmCmU*mU*mU*mU
**Q.** What does the source list for B3?
**A.** # Sites in PHH (off-target integration sites detected) [4]: 1; Max Editing (TTR [1]; LNP formulated U-depleted Spy Cas9 mRNA and human specific sgRNAs, dose response): 71.28%; Max Editing (TTR [2]; [7]): 97.03%; Avg % Knockdown (TTR mRNA) (TTR mRNA): 96.17%

B4: G000509: TTR Cyno specific sgRNA modified sequence, SEQ ID NO: 121; guide sequence of CR005369 (nucleic acid)
guide: mA*mA*mA*rGrUrUrCrUrArGrArUrGrCrCrGrUrCrCrGrGrUrUrUrUrArGrAmGmCmUmAmGmAmAmAmUmAmGmCrArArGrUrUrArArArArUrArArGrGrCrUrArGrUrCrCrGrUrUrArUrCrAmAmCmUmUmGmAmAmAmAmAmGmUmGmGmCmAmCmCmGmAmGmUmCmGmGmUmGmCmU*mU*mU*mU
**Q.** B4 was tested. Which “12.5 ng mRNA, 3.9 nM sgRNA, Avg % Edit” value (TTR [3]) did it give?
**A.** 74.47%

B5: G000504: TTR Cyno specific sgRNA modified sequence, SEQ ID NO: 116; guide sequence of CR005364 (nucleic acid)
guide: mA*mA*mA*rGrGrCrUrGrCrUrGrArUrGrArGrArCrCrUrGrUrUrUrUrArGrAmGmCmUmAmGmAmAmAmUmAmGmCrArArGrUrUrArArArArUrArArGrGrCrUrArGrUrCrCrGrUrUrArUrCrAmAmCmUmUmGmAmAmAmAmAmGmUmGmGmCmAmCmCmGmAmGmUmCmGmGmUmGmCmU*mU*mU*mU
**Q.** How did the “Max Editing” value (TTR [1]; [5]) turn out when B5 was run?
**A.** 7.16%

**Q.** And the “Max Editing” value (TTR [2]; [6])?
**A.** 98.04%

**Q.** And the “Max Editing” value (TTR [2]; [7])?
**A.** 7.16%
